From patent US20220017612A1 (TILOS THERAPEUTICS, published 2022)

Each binder was assayed against T1, human LAP-TGFβ1 overexpressed on cells (human, UniProt P01137 30-390) (assay: flow cytometry; black bar HT1080-huB1, grey bar HT1080).
T1 construct: HT1080 or P3U1 cells overexpressing wild-type human LAP-TGFβ1; also called HT1080-huB1; HT1080-hβ1
Experimental: First, the ability of 22F9H0L0, HILO, H2L0, H3L0, H4L0, H5L0, H0L1, H1L1, H2L1, H3L1, H4L1, H5L1, H0L2, H1L2, H2L2, H3L3, H4L2, and H5L2 to bind to HT1080 cells overexpressing human TGFβ1 was tested by flow cytometry. HT1080 cells over-expressing human LAP-TGFβ1 were placed in a round-bottom 96-well plate at density of 40,000 cells/well. The cells were washed with FACS buffer (25 mM HEPES, 2 mM EDTA, 2% fetal bovine serum in Hank's Balanced Salt Solution). 50 μL of 1:200 diluted TruStain Human FcX (BioLegend) was added to each well, followed by 50 μL of 100 ng/μL of humanized 22F9 construct. The antibody was allowed to bind for 20 minutes. The cells were washed twice with FACS buffer. The cells were labeled for 15 minutes with Alexa647-anti Human IgG (Jackson Immunoresearch), washed twice with FACS buffer, and analyzed by flow cytometry.

T1 sequence (P01137 30-390): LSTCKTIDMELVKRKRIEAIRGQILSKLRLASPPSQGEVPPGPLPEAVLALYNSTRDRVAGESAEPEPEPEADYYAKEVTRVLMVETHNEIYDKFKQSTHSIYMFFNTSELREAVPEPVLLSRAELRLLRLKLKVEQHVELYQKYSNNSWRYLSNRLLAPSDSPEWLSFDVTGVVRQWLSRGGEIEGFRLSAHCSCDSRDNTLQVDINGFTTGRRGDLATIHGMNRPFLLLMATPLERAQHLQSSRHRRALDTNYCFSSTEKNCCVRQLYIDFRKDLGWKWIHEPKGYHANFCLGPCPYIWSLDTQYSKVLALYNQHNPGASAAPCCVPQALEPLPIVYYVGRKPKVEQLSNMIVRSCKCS

binding result | Binder
binds | 22F9_H2L0 (antibody, human IgG1, kappa, V domains shown) VH: QVQLVQSGAEVKKPGASVKVSCKASGYTFTSYWMHWVRQAPGQGLEWIGMIHPNSGSTNYNEKFKSRVTLTVDTSTSTAYMELSSLRSEDTAVYYCAYYDYDGFFDVWGQGTLVTVSS VL: DIQLTQSPSSLSASVGDRVTITCRASKSVSTSGYSYMHWYQQKPGKAPKLLIYLASNLESGVPSRFSGSGSGTDFTLTISSLQPEDFATYYCQHSRELPYTFGGGTKVEIKR
binds | 22F9_H2L1 (antibody, human IgG1, kappa, V domains shown) VH: QVQLVQSGAEVKKPGASVKVSCKASGYTFTSYWMHWVRQAPGQGLEWIGMIHPNSGSTNYNEKFKSRVTLTVDTSTSTAYMELSSLRSEDTAVYYCAYYDYDGFFDVWGQGTLVTVSS VL: DIQLTQSPSSLSASVGDRVTITCRASKSVSTSGYSYMHWYQQKPGKPPKLLIYLASNLESGVPSRFSGSGSGTHFTLTISSLQPEDFATYYCQHSRELPYTFGGGTKVEIKR

Each binder was assayed against T2, fusion protein of a human IgG1 Fc domain and human LAP-TGFβ1 (human, UniProt P01137 30-390) (assay: BLI (Octet)).
T2 construct: printed both as Fc-huB1 and LAP-TGFβ-Fc; also called Fc-huB1; Fc-human LAP
T2 sequence (P01137 30-390 limits assumed): as the sequence (P01137 30-390) above

Kd [nM] | koff [s⁻¹] | kon [M⁻¹ s⁻¹] | Binder
0.48 | 0.000747 | 1.57e+06 | 20E6_H2L1 (antibody, human IgG1, kappa, V domains shown) VH: QVQLVQSGAEVKKPGASVKVSCKASGYTFTSYWMHWVRQAPGQGLEWIGRIDPNSGGIKYNEKFKSRVTLTVDKSSSTAYMELSRLRSDDTAVYYCARWDYGGYFDVWGQGTLVTVSS VL: DIQMTQSPSSLSASVGDRVTITCRASQDITNYLNWYQQKPGKAVKLLIYYTSRLHSGVPSRFSGSGSGTDYTLTISSLQPEDFATYFCQQGDTLPWTFGQGTKLEIKR
0.51 | 0.000814 | 1.59e+06 | 20E6_H0L1 (antibody, human IgG1, kappa, V domains shown) VH: QVQLVQSGAEVKKPGASVKVSCKASGYTFTSYWMHWVRQAPGQGLEWMGRIDPNSGGIKYNEKFKSRVTMTRDTSISTAYMELSRLRSDDTAVYYCARWDYGGYFDVWGQGTLVTVSS VL: DIQMTQSPSSLSASVGDRVTITCRASQDITNYLNWYQQKPGKAVKLLIYYTSRLHSGVPSRFSGSGSGTDYTLTISSLQPEDFATYFCQQGDTLPWTFGQGTKLEIKR
0.48 | 0.000677 | 1.41e+06 | 20E6_H1L1 (antibody, human IgG1, kappa, V domains shown) VH: QVQLVQSGAEVKKPGASVKVSCKASGYTFTSYWMHWVRQAPGQGLEWIGRIDPNSGGIKYNEKFKSRVTLTVDTSISTAYMELSRLRSDDTAVYYCARWDYGGYFDVWGQGTLVTVSS VL: DIQMTQSPSSLSASVGDRVTITCRASQDITNYLNWYQQKPGKAVKLLIYYTSRLHSGVPSRFSGSGSGTDYTLTISSLQPEDFATYFCQQGDTLPWTFGQGTKLEIKR
0.47 | 0.000702 | 1.48e+06 | 20E6_H3L1 (antibody, human IgG1, kappa) heavy: not shown light: DIQMTQSPSSLSASVGDRVTITCRASQDITNYLNWYQQKPGKAVKLLIYYTSRLHSGVPSRFSGSGSGTDYTLTISSLQPEDFATYFCQQGDTLPWTFGQGTKLEIKRTVAAPSVFIFPPSDEQLKSGTASVVCLLNNFYPREAKVQWKVDNALQSGNSQESVTEQDSKDSTYSLSSTLTLSKADYEKHKVYACEVTHQGLSSPVTKSFNRGEC
0.47 | 0.000729 | 1.56e+06 | 20E6_H4L1 (antibody, human IgG1, kappa) heavy: not shown light: DIQMTQSPSSLSASVGDRVTITCRASQDITNYLNWYQQKPGKAVKLLIYYTSRLHSGVPSRFSGSGSGTDYTLTISSLQPEDFATYFCQQGDTLPWTFGQGTKLEIKRTVAAPSVFIFPPSDEQLKSGTASVVCLLNNFYPREAKVQWKVDNALQSGNSQESVTEQDSKDSTYSLSSTLTLSKADYEKHKVYACEVTHQGLSSPVTKSFNRGEC

Biological target: T1, human LAP-TGFβ1 overexpressed on cells
Assay: flow cytometry; black bar HT1080-huB1, grey bar HT1080
Remark: another data set of the same source

binding result | Binder
binds | Q75K_L19V (antibody, human IgG1, kappa, also called 28G11_H2L3 with HC Q75K and LC L19V) heavy: not shown light: DIQMTQSPSSLSASVGDRVTISCRASQDISNYLNWYQQKPGKTVKLLIYYTSRLHSGVPSRFSGSGSGTDYTLTISSLQPEDVATYFCQQGDTLPWTFGQGTKLEIKRTVAAPSVFIFPPSDEQLKSGTASVVCLLNNFYPREAKVQWKVDNALQSGNSQESVTEQDSKDSTYSLSSTLTLSKADYEKHKVYACEVTHQGLSSPVTKSFNRGEC
binds | Q75K_T43V (antibody, human IgG1, kappa, V domains shown, also called 28G11_H2L3 with HC Q75K and LC T43V) VH: EVQLVESGGGLVQPGGSLRLSCAASGFTFTDYYMSWVRQAPGKGLEWLGFIRNKPNGYTTEYSASVKGRFTISRDNSKSSLYLQMNSLKTEDTAVYYCARYTGGGYFDYWGQGTLLTVSS VL: DIQMTQSPSSLSASVGDRLTISCRASQDISNYLNWYQQKPGKVVKLLIYYTSRLHSGVPSRFSGSGSGTDYTLTISSLQPEDVATYFCQQGDTLPWTFGQGTKLEIKR
binds | Q75K_V44P (antibody, human IgG1, kappa, V domains shown, also called 28G11_H2L3 with HC Q75K and LC V44P) VH: EVQLVESGGGLVQPGGSLRLSCAASGFTFTDYYMSWVRQAPGKGLEWLGFIRNKPNGYTTEYSASVKGRFTISRDNSKSSLYLQMNSLKTEDTAVYYCARYTGGGYFDYWGQGTLLTVSS VL: DIQMTQSPSSLSASVGDRLTISCRASQDISNYLNWYQQKPGKTPKLLIYYTSRLHSGVPSRFSGSGSGTDYTLTISSLQPEDVATYFCQQGDTLPWTFGQGTKLEIKR
binds | Q75K_WT (antibody, human IgG1, kappa, also called 28G11_H2L3 with HC Q75K) heavy: not shown light: DIQMTQSPSSLSASVGDRLTISCRASQDISNYLNWYQQKPGKTVKLLIYYTSRLHSGVPSRFSGSGSGTDYTLTISSLQPEDVATYFCQQGDTLPWTFGQGTKLEIKRTVAAPSVFIFPPSDEQLKSGTASVVCLLNNFYPREAKVQWKVDNALQSGNSQESVTEQDSKDSTYSLSSTLTLSKADYEKHKVYACEVTHQGLSSPVTKSFNRGEC
binds | S76N_F87Y (antibody, human IgG1, kappa, V domains shown, also called 28G11_H2L3 with HC S76N and LC F87Y) VH: EVQLVESGGGLVQPGGSLRLSCAASGFTFTDYYMSWVRQAPGKGLEWLGFIRNKPNGYTTEYSASVKGRFTISRDNSQNSLYLQMNSLKTEDTAVYYCARYTGGGYFDYWGQGTLLTVSS VL: DIQMTQSPSSLSASVGDRLTISCRASQDISNYLNWYQQKPGKTVKLLIYYTSRLHSGVPSRFSGSGSGTDYTLTISSLQPEDVATYYCQQGDTLPWTFGQGTKLEIKR
binds | S76N_T43V (antibody, human IgG1, kappa, V domains shown, also called 28G11_H2L3 with HC S76N and LC T43V) VH: EVQLVESGGGLVQPGGSLRLSCAASGFTFTDYYMSWVRQAPGKGLEWLGFIRNKPNGYTTEYSASVKGRFTISRDNSQNSLYLQMNSLKTEDTAVYYCARYTGGGYFDYWGQGTLLTVSS VL: DIQMTQSPSSLSASVGDRLTISCRASQDISNYLNWYQQKPGKVVKLLIYYTSRLHSGVPSRFSGSGSGTDYTLTISSLQPEDVATYFCQQGDTLPWTFGQGTKLEIKR
binds | S76N_V44P (antibody, human IgG1, kappa, V domains shown, also called 28G11_H2L3 with HC S76N and LC V44P) VH: EVQLVESGGGLVQPGGSLRLSCAASGFTFTDYYMSWVRQAPGKGLEWLGFIRNKPNGYTTEYSASVKGRFTISRDNSQNSLYLQMNSLKTEDTAVYYCARYTGGGYFDYWGQGTLLTVSS VL: DIQMTQSPSSLSASVGDRLTISCRASQDISNYLNWYQQKPGKTPKLLIYYTSRLHSGVPSRFSGSGSGTDYTLTISSLQPEDVATYFCQQGDTLPWTFGQGTKLEIKR
binds | S76N_WT (antibody, human IgG1, kappa, V domains shown, also called 28G11_H2L3 with HC S76N) VH: EVQLVESGGGLVQPGGSLRLSCAASGFTFTDYYMSWVRQAPGKGLEWLGFIRNKPNGYTTEYSASVKGRFTISRDNSQNSLYLQMNSLKTEDTAVYYCARYTGGGYFDYWGQGTLLTVSS VL: DIQMTQSPSSLSASVGDRLTISCRASQDISNYLNWYQQKPGKTVKLLIYYTSRLHSGVPSRFSGSGSGTDYTLTISSLQPEDVATYFCQQGDTLPWTFGQGTKLEIKR
binds | T30S_F87Y (antibody, human IgG1, kappa, V domains shown, also called 28G11_H2L3 with HC T30S and LC F87Y) VH: EVQLVESGGGLVQPGGSLRLSCAASGFTFSDYYMSWVRQAPGKGLEWLGFIRNKPNGYTTEYSASVKGRFTISRDNSQSSLYLQMNSLKTEDTAVYYCARYTGGGYFDYWGQGTLLTVSS VL: DIQMTQSPSSLSASVGDRLTISCRASQDISNYLNWYQQKPGKTVKLLIYYTSRLHSGVPSRFSGSGSGTDYTLTISSLQPEDVATYYCQQGDTLPWTFGQGTKLEIKR
binds | T30S_T43V (antibody, human IgG1, kappa, V domains shown, also called 28G11_H2L3 with HC T30S and LC T43V) VH: EVQLVESGGGLVQPGGSLRLSCAASGFTFSDYYMSWVRQAPGKGLEWLGFIRNKPNGYTTEYSASVKGRFTISRDNSQSSLYLQMNSLKTEDTAVYYCARYTGGGYFDYWGQGTLLTVSS VL: DIQMTQSPSSLSASVGDRLTISCRASQDISNYLNWYQQKPGKVVKLLIYYTSRLHSGVPSRFSGSGSGTDYTLTISSLQPEDVATYFCQQGDTLPWTFGQGTKLEIKR
binds | T30S_V44P (antibody, human IgG1, kappa, V domains shown, also called 28G11_H2L3 with HC T30S and LC V44P) VH: EVQLVESGGGLVQPGGSLRLSCAASGFTFSDYYMSWVRQAPGKGLEWLGFIRNKPNGYTTEYSASVKGRFTISRDNSQSSLYLQMNSLKTEDTAVYYCARYTGGGYFDYWGQGTLLTVSS VL: DIQMTQSPSSLSASVGDRLTISCRASQDISNYLNWYQQKPGKTPKLLIYYTSRLHSGVPSRFSGSGSGTDYTLTISSLQPEDVATYFCQQGDTLPWTFGQGTKLEIKR
no binding | T30S_Y71F (antibody, human IgG1, kappa, V domains shown, also called 28G11_H2L3 with HC T30S and LC Y71F) VH: EVQLVESGGGLVQPGGSLRLSCAASGFTFSDYYMSWVRQAPGKGLEWLGFIRNKPNGYTTEYSASVKGRFTISRDNSQSSLYLQMNSLKTEDTAVYYCARYTGGGYFDYWGQGTLLTVSS VL: DIQMTQSPSSLSASVGDRLTISCRASQDISNYLNWYQQKPGKTVKLLIYYTSRLHSGVPSRFSGSGSGTDFTLTISSLQPEDVATYFCQQGDTLPWTFGQGTKLEIKR
